Test results from patent US20020082414A1.

Columns and labels:
[1] = molecular target: human ETB-receptor (ET-receptor derived from pHETBR31 and pHETBR34) (human) (UniProt P24530); assay: displacement of 125I-ET-1 from COS-7 cells expressing the ETB-receptor
[2] = molecular target: human ETA-receptor (ET-receptor derived from phETIR) (human) (UniProt P25101); assay: displacement of 50 pM 125I-ET-1 from COS-7 cells expressing the ETA-receptor
Sequence of human ETA-receptor (ET-receptor derived from phETIR) (human) (P25101 21-427 limits assumed, form in doubt): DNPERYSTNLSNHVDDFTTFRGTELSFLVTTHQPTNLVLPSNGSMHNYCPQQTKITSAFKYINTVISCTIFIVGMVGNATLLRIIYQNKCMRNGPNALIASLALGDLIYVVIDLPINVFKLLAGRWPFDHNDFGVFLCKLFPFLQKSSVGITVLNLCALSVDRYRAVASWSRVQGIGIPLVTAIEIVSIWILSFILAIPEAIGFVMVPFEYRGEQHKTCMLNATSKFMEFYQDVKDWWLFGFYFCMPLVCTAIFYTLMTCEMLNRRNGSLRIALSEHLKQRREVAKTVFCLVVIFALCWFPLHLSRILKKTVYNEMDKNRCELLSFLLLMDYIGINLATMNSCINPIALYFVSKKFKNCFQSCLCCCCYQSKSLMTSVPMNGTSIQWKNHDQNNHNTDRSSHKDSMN

Sequence of human ETB-receptor (ET-receptor derived from pHETBR31 and pHETBR34) (human) (P24530 27-442 limits assumed, form in doubt): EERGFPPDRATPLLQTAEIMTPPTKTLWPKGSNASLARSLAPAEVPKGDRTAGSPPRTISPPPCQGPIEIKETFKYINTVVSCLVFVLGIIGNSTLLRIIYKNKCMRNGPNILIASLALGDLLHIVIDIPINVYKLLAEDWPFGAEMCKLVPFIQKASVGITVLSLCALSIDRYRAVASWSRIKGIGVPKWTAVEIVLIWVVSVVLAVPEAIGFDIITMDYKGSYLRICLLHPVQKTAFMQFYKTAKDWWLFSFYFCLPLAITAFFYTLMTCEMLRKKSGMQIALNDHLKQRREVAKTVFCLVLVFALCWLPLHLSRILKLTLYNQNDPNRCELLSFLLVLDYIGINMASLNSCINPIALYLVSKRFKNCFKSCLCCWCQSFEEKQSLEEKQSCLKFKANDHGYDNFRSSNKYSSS

| Substance | IC50 [1] | IC50 [2] |
| --- | --- | --- |
| Endothelin 2 (from UniProt P20800 49-69) (peptide) | 1 nM | 6.1 nM |
| Endothelin 3 (from UniProt P14138 97-117) (peptide) | 1 nM | – |
